Data reported in publication PMC8669218.

Molecular target: extracellular domain of human DPP4 (residues 39-766), wild type (human), P27487
Experiment: nonreducing SDS-PAGE
Conditions: remark: other sources report otherwise

B1: extracellular domain of human DPP4 (residues 39-766), wild type, P27487 39-766 (domain or fragment)
chain: SRKTYTLTDYLKNTYRLKLYSLRWISDHEYLYKQENNILVFNAEYGNSSVFLENSTFDEFGHSINDYSISPDGQFILLEYNYVKQWRHSYTASYDIYDLNKRQLITEERIPNNTQWVTWSPVGHKLAYVWNNDIYVKIEPNLPSYRITWTGKEDIIYNGITDWVYEEEVFSAYSALWWSPNGTFLAYAQFNDTEVPLIEYSFYSDESLQYPKTVRVPYPKAGAVNPTVKFFVVNTDSLSSVTNATSIQITAPASMLIGDHYLCDVTWATQERISLQWLRRIQNYSVMDICDYDESSGRWNCLVARQHIEMSTTGWVGRFRPSEPHFTLDGNSFYKIISNEEGYRHICYFQIDKKDCTFITKGTWEVIGIEALTSDYLYYISNEYKGMPGGRNLYKIQLSDYTKVTCLSCELNPERCQYYSVSFSKEAKYYQLRCSGPGLPLYTLHSSVNDKGLRVLEDNSALDKMLQNVQMPSKKLDFIILNETKFWYQMILPPHFDKSKKYPLLLDVYAGPCSQKADTVFRLNWATYLASTENIIVASFDGRGSGYQGDKIMHAINRRLGTFEVEDQIEAARQFSKMGFVDNKRIAIWGWSYGGYVTSMVLGSGSGVFKCGIAVAPVSRWEYYDSVYTERYMGLPTPEDNLDHYRNSTVMSRAENFKQVEYLLIHGTADDNVHFQQSAQISKALVDVGVDFQAMWYTDEDHGIASSTAHQHIYTHMSHFIKQCFSLP
modifications: here or on the partner: glycosylated (sites not given); glycosylated (sites not given)
  dimer percent: 40.8%
